Measured values taken from patent publication US20090004749, “METHOD AND KIT FOR DETERMINING THE AMOUNT OF DNA BINDING PROTEIN” (SYSMEX CORPORATION, published 2009).

Assays:
NF-κB (recombinant, p50) [1] = target: T1, NF-κB (recombinant, p50) (UniProt P19838 P19838:1-433); assay: fluorescence correlation spectroscopy; 1 nM probe, room temperature; 10 min; settings: tags: Promega; detected with anti-p50 antibody; chain copies: 2; label: 5'-TAMRA; hairpin, stem-loop with AAAA loop
Procedure: (§1) As a pure-line sample, 0.6 μg/μl solution of recombinant NF-κB was used. […] As the control, a pure-line sample-free sample using the fluorescent-labeled probe Pfw only as a nucleic acid probe was used. In the Reference Example, the sample to which an anti-p50 antibody had further been added was used. The reaction time was 10 minutes for each sample.

NF-κB (recombinant, p50) [2] = target: T1, NF-κB (recombinant, p50); assay: competition; FCS; unlabeled competitor against 1 nM Pfw; settings: tags: Promega; detected with anti-p50 antibody; chain copies: 2; hairpin, stem-loop with AAAA loop
Procedure: as §1

NF-κB (recombinant, p50) [3] = target: T1, NF-κB (recombinant, p50); assay: competition; FCS; no competition at 50 nM; diffusion time same as without competitor; settings: tags: Promega; detected with anti-p50 antibody; chain copies: 2; hairpin, stem-loop with AAAA loop
Procedure: as §1

T1 sequence (P19838 1-433, one chain of several): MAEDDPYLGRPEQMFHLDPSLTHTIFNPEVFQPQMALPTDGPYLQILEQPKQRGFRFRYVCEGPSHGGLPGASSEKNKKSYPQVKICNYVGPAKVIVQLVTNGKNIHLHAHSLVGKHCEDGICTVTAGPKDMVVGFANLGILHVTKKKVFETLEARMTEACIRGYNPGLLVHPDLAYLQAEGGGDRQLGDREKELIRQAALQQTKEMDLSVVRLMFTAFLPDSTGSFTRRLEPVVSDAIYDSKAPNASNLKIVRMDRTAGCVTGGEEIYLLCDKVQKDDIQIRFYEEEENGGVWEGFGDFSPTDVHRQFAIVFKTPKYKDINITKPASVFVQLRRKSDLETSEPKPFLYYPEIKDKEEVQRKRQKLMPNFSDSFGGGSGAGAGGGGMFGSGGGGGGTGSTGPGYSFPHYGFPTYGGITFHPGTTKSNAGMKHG

AGTTGAGGGGACTTTCCCAGGCAAAAGCCTGGGAAAGTCCCCTCAACT (structured_DNA) [Pfw]
binding result (NF-κB (recombinant, p50) [1]): binds

AGTTGAGGGGACTTTCCCAGGCAAAAGCCTGGGAAAGTCCCCTCAACT (structured_DNA) [Pw]
binding result (NF-κB (recombinant, p50) [2]): binds

CAGGCGCGTTTTGACCATCTTAAAAAAGATGGTCAAAACGCGCCTG (structured_DNA) [Pn]
binding result (NF-κB (recombinant, p50) [3]): no binding
